Reference: publication PMC7234810

How the values were obtained:
[1] = target: Mouse IL-33-TRAP-Fc (a fusion protein of ST2 and IL-1RAcP with an Fc tag) (mouse); assay: SPR; BIAcore T200, single cycle kinetics, 25°C; mouse ST2-Fc (~200 RU) or mouse TRAP-Fc (~400 RU) captured on a Protein G chip; HpBARI injected in three-fold dilutions; 10 mM NaH2PO4 pH 7.5, 150 mM NaCl, 50 uM EDTA, 0.05% surfactant P20; 1:1 model
[2] = target: Mouse ST2-Fc chimera (mouse) (UniProt P14719); assay: as above
[3] = target: Human ST2-Fc chimera (human) (UniProt Q01638)
Chain of Human ST2-Fc chimera (human) (Q01638 19-328, change not shown): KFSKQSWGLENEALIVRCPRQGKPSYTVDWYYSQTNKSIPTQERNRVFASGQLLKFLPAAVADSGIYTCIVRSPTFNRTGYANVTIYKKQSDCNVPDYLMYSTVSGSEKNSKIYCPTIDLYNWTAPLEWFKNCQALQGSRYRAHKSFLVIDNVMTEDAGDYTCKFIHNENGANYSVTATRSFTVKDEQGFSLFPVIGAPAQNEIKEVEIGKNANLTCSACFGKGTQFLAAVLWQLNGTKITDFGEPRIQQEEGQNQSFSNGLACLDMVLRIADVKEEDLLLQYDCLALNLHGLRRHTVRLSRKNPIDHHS

Chain of Mouse ST2-Fc chimera (mouse) (P14719 27-332, change not shown): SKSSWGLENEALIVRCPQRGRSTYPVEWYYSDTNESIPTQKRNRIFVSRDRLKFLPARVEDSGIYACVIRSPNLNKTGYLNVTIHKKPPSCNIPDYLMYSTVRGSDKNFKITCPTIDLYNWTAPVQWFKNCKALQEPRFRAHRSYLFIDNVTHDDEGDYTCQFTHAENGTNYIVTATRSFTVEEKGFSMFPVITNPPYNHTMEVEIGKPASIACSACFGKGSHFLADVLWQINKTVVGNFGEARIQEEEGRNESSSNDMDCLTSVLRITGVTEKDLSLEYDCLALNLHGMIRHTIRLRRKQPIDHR

| Substance | Kd [1] [nM] | koff [1] [s⁻¹] | kon [1] [M⁻¹ s⁻¹] | Kd [2] [nM] | koff [2] [s⁻¹] | kon [2] [M⁻¹ s⁻¹] | IC50 of inhibition of IL-33-induced IFN-γ production from human PBMCs (5 ng/ml IL-12 + 0.1 ng/ml oxidation resistant human IL-33, 44 hr, ELISA); blocks human IL-33 with human ST2 [3] [nM] | fold change of the off-rate against the N-terminal tagged construct [1] [fold] |
| --- | --- | --- | --- | --- | --- | --- | --- | --- |
| H. polygyrus Binds Alarmin Receptor and Inhibits (HpBARI), N-terminal tagged (natural protein) | 0.17 | 0.00065 | 3.9e+06 | 0.26 | 0.0011 | 4e+06 | > 1000 |  |
| HpBARI expressed with C-terminal tags (natural protein) |  |  |  |  |  |  |  | 4 |
